Data from US20230220042A1 (SHANGHAI JIAO TONG UNIVERSITY SCHOOL OF MEDICINE, published 2023).
Changes are numbered by the printed parent chain. Names may count otherwise. One block for each molecule: values may come before it.

Tests used:
FcγRIIA^131H = target: T1, FcγRIIA^131H (human, UniProt P12318 34-217, biotin-labeled); experiment: ELISA, coated antibody, biotin-FcγR
T1 construct: extracellular domain; Bought protein; also called RIIAH
T1 sequence (looked up): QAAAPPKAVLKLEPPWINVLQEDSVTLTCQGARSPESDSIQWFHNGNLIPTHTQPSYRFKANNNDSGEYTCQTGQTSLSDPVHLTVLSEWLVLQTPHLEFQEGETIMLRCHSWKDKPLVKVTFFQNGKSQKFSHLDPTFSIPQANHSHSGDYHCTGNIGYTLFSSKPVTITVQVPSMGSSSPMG
Procedure: (§1) One hundred μl (2 μg/mL) of antibody or mutant thereof were added to the enzyme-linked plate to be coated overnight, then the supernatant was discarded. The plate was blocked with PBS containing 1% BSA for 2 hours, and washed with PBST (PBS containing 0.05% Tween 20). Biotin-labeled FcγR extracellular domain protein (Beijing Sino Biological Co., Ltd) of appropriate concentration was added and incubated at room temperature for 1 hour, then the supernatant was discarded and the plate was washed with PBST. The Biotin-labeled protein was detected by incubating with Streptavidin-HRP (BD BioSciences) at room temperature for 1 hour. The supernatant was removed, and the color-developing solution was added for color development for 20-40 minutes to determine the absorbance of 650 nm (A650).
(§2) Anti-human OX40 antibodies containing these new Fc mutation combinations are expressed and the binding property of the mutant antibody to FcγR are analyzed by Enzyme-linked immunosorbent assay (ELISA).

FcγRIIA^131R = target: T2, FcγRIIA^131R (human, UniProt P12318 34-217, biotin-labeled); experiment: ELISA, coated antibody, biotin-FcγR
T2 construct: extracellular domain; Bought protein; also called RIIAR
T2 sequence (looked up): T1 sequence (looked up) with H134R
Procedure: as §1, §2

FcγRI = target: T3, FcγRI (human, UniProt P12314 16-292, biotin-labeled); experiment: ELISA, coated antibody, biotin-FcγR
T3 construct: extracellular domain; Bought protein; also called CD64
Procedure: as §1, §2

FcγRIIIA^158F = target: T4, FcγRIIIA^158F (human, UniProt P08637 17-208, biotin-labeled); experiment: ELISA, coated antibody, biotin-FcγR
T4 construct: extracellular domain; Bought protein; also called RIIIAF
Procedure: as §1, §2

FcγRIIB = target: T5, FcγRIIB (human, UniProt P31994 43-217, biotin-labeled); experiment: ELISA, coated antibody, biotin-FcγR
T5 construct: extracellular domain; Bought protein; also called CD32b
T5 sequence (looked up): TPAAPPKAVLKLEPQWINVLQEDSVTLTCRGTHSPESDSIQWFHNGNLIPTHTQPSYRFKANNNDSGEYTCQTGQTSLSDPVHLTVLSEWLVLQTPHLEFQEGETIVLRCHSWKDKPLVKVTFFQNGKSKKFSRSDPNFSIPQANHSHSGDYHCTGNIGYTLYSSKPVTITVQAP
Procedure: as §1, §2

FcγRIIIA^158V = target: T6, FcγRIIIA^158V (human, UniProt P08637 17-208, biotin-labeled); experiment: ELISA, coated antibody, biotin-FcγR
T6 construct: extracellular domain; Bought protein; also called RIIIAV; CD16a 158V
Procedure: as §1, §2

[1] = target: T7, Biotin-FcγRIIB (human FcγRIIB, Sino Biological) (human, UniProt P31994 43-217, limits assumed, biotin-labeled); experiment: NGS after FACS sort of 3T3-displayed LibraryMix for biotin-FcγRIIB binding
T7 construct: Used at 1 µg/ml with Streptavidin-APC for flow cytometry and sorting; also called CD32b
T7 sequence (looked up): T5 sequence (looked up)

T4 sequence (P08637 17-208): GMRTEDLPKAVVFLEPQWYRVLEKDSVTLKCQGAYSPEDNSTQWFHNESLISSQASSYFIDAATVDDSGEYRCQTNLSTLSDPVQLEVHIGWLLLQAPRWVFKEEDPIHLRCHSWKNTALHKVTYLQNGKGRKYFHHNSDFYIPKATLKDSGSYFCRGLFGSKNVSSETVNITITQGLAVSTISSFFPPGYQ
T3 sequence (P12314 16-292): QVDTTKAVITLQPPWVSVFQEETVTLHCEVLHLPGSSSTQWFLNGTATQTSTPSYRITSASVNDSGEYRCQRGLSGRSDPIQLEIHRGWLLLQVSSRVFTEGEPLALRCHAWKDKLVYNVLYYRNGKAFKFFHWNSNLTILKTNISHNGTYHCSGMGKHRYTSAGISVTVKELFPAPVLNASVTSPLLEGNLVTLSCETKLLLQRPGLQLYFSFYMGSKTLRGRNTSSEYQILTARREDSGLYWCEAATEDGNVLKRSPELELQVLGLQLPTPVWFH
T6 sequence (P08637 17-208 F176V): as the sequence (P08637 17-208) above, with F160V counted along it

Molecule: IgG1 (antibody)
Absorbance value (FcγRIIA^131H): 0.57 A650 | Absorbance value (FcγRIIA^131R): 0.26 A650 | Absorbance value (FcγRI): 2.66 A650 | Absorbance value (FcγRIIIA^158F): 0.19 A650 | Absorbance value (FcγRIIB): 0.76 A650 | Absorbance value (FcγRIIIA^158V): 0.96 A650

B1: human IgG2 anti-mouse CD40 surface displayed antibody, P271G (antibody, name in EU numbering)
light chain (with the P2A rest): DTVLTQSPALAVSPGERVTISCRASDSVSTLMHWYQQKPGQQPKLLIYLASHLESGVPARFSGSGSGTDFTLTIDPVEADDTATYYCQQSWNDPWTFGGGTKLELKRTVAAPSVFIFPPSDEQLKSGTASVVCLLNNFYPREAKVQWKVDNALQSGNSQESVTEQDSKDSTYSLSSTLTLSKADYEKHKVYACEVTHQGLSSPVTKSFNRGECGSGATNFSLLKQAGDVEENPG
heavy chain: EVQLVESDGGLVQPGRSLKLPCAASGFTFSDYYMAWVRQAPTKGLEWVASISYDGSSTYYRDSVKGRFTISRDNAKSTLYLQMDSLRSEDTATYYCGRHSSYFDYWGQGVMVTVSSASTKGPSVFPLAPCSRSTSESTAALGCLVKDYFPEPVTVSWNSGALTSGVHTFPAVLQSSGLYSLSSVVTVPSSNFGTQTYTCNVDHKPSNTKVDKTVERKCCVECPPCPAPPVAGPSVFLFPPKPKDTLMISRTPEVTCVVVDVSHEDGEVQFNWYVDGVEVHNAKTKPREEQFNSTFRVVSVLTVVHQDWLNGKEYKCKVSNKGLPAPIEKTISKTKGQPREPQVYTLPPSREEMTKNQVSLTCLVKGFYPSDIAVEWESNGQPENNYKTTPPMLDSDGSFFLYSKLTVDKSRWQQGNVFSCSVMHEALHNHYTQKSLSLSPGKLEPPPSTVSNMATVAVLVVLGAAIVTGAVVAFVMKMRRRNTGGKGGDYALAPGSQTSDLSLPDCKVMVHDPHSLA
notes: m1 with this Fc mutation (Eu numbering); copies: 2 + 2
Enrichment factor (percentage after sorting/percentage before sorting) [1]: 68.9 | Increased factor (enrichment factor/wild-type enrichment factor) [1]: 92.1

B2: human IgG2 anti-mouse CD40 surface displayed antibody, P271G/S298G (antibody, name in EU numbering)
light chain (with the P2A rest): B1 light chain (with the P2A rest)
heavy chain: B1 heavy chain with S293G
notes: m1 with these Fc mutations (Eu numbering); copies: 2 + 2
Enrichment factor (percentage after sorting/percentage before sorting) [1]: 9.73 | Increased factor (enrichment factor/wild-type enrichment factor) [1]: 13

B9: human IgG2 anti-mouse CD40 surface displayed antibody, P271G/P331T (antibody, name in EU numbering)
light chain (with the P2A rest): B1 light chain (with the P2A rest)
heavy chain: B1 heavy chain with P326T
notes: as for B2
Enrichment factor (percentage after sorting/percentage before sorting) [1]: 32.3 | Increased factor (enrichment factor/wild-type enrichment factor) [1]: 43.2

B11: human IgG2 anti-mouse CD40 surface displayed antibody, L328M (antibody, name in EU numbering)
light chain (with the P2A rest): B1 light chain (with the P2A rest)
heavy chain: B1 heavy chain with G266P, L323M
notes: as for B1
Enrichment factor (percentage after sorting/percentage before sorting) [1]: 24.9 | Increased factor (enrichment factor/wild-type enrichment factor) [1]: 33.3

B12: human IgG2 anti-mouse CD40 surface displayed antibody, P271G/P331C (antibody, name in EU numbering)
light chain (with the P2A rest): B1 light chain (with the P2A rest)
heavy chain: B1 heavy chain with P326C
notes: as for B2
Enrichment factor (percentage after sorting/percentage before sorting) [1]: 140 | Increased factor (enrichment factor/wild-type enrichment factor) [1]: 187

B14: human IgG2 anti-mouse CD40 surface displayed antibody, P271G/P329S (antibody, name in EU numbering)
light chain (with the P2A rest): B1 light chain (with the P2A rest)
heavy chain: B1 heavy chain with P324S
notes: as for B2
Enrichment factor (percentage after sorting/percentage before sorting) [1]: 46.2 | Increased factor (enrichment factor/wild-type enrichment factor) [1]: 61.8

B15: human IgG2 anti-mouse CD40 surface displayed antibody, P271G/S298K (antibody, name in EU numbering)
light chain (with the P2A rest): B1 light chain (with the P2A rest)
heavy chain: B1 heavy chain with S293K
notes: as for B2
Enrichment factor (percentage after sorting/percentage before sorting) [1]: 10.2 | Increased factor (enrichment factor/wild-type enrichment factor) [1]: 13.6

B16: human IgG2 anti-mouse CD40 surface displayed antibody, P271G/S298L (antibody, name in EU numbering)
light chain (with the P2A rest): B1 light chain (with the P2A rest)
heavy chain: B1 heavy chain with S293L
notes: as for B2
Enrichment factor (percentage after sorting/percentage before sorting) [1]: 188 | Increased factor (enrichment factor/wild-type enrichment factor) [1]: 252

B17: human IgG2 anti-mouse CD40 surface displayed antibody, P271G/S298D (antibody, name in EU numbering)
light chain (with the P2A rest): B1 light chain (with the P2A rest)
heavy chain: B1 heavy chain with S293D
notes: as for B2
Enrichment factor (percentage after sorting/percentage before sorting) [1]: 6.78 | Increased factor (enrichment factor/wild-type enrichment factor) [1]: 9.06

B18: human IgG2 anti-mouse CD40 surface displayed antibody, P271A/S298R (antibody, name in EU numbering)
light chain (with the P2A rest): B1 light chain (with the P2A rest)
heavy chain: B1 heavy chain with G266A, S293R
notes: as for B2
Enrichment factor (percentage after sorting/percentage before sorting) [1]: 2.45 | Increased factor (enrichment factor/wild-type enrichment factor) [1]: 3.27

B21: human IgG2 anti-mouse CD40 surface displayed antibody, P271G/S298E (antibody, name in EU numbering)
light chain (with the P2A rest): B1 light chain (with the P2A rest)
heavy chain: B1 heavy chain with S293E
notes: as for B2
Enrichment factor (percentage after sorting/percentage before sorting) [1]: 298 | Increased factor (enrichment factor/wild-type enrichment factor) [1]: 398

Second part, the molecule after the results:

Enrichment factor (percentage after sorting/percentage before sorting) [1]: 1.65 | Increased factor (enrichment factor/wild-type enrichment factor) [1]: 2.21
B3: human IgG2 anti-mouse CD40 surface displayed antibody, P271Q (antibody, name in EU numbering)
light chain (with the P2A rest): B1 light chain (with the P2A rest)
heavy chain: B1 heavy chain with G266Q
notes: as for B1

Enrichment factor (percentage after sorting/percentage before sorting) [1]: 18 | Increased factor (enrichment factor/wild-type enrichment factor) [1]: 24
B4: human IgG2 anti-mouse CD40 surface displayed antibody, P271G/S298N (antibody, name in EU numbering)
light chain (with the P2A rest): B1 light chain (with the P2A rest)
heavy chain: B1 heavy chain with S293N
notes: as for B2

Enrichment factor (percentage after sorting/percentage before sorting) [1]: 4.74 | Increased factor (enrichment factor/wild-type enrichment factor) [1]: 6.33
B5: human IgG2 anti-mouse CD40 surface displayed antibody, P271G/T299M (antibody, name in EU numbering)
light chain (with the P2A rest): B1 light chain (with the P2A rest)
heavy chain: B1 heavy chain with T294M
notes: as for B2

Enrichment factor (percentage after sorting/percentage before sorting) [1]: 6.28 | Increased factor (enrichment factor/wild-type enrichment factor) [1]: 8.39
B6: human IgG2 anti-mouse CD40 surface displayed antibody, P271G/T299A (antibody, name in EU numbering)
light chain (with the P2A rest): B1 light chain (with the P2A rest)
heavy chain: B1 heavy chain with T294A
notes: as for B2

Enrichment factor (percentage after sorting/percentage before sorting) [1]: 2.18 | Increased factor (enrichment factor/wild-type enrichment factor) [1]: 2.91
B7: human IgG2 anti-mouse CD40 surface displayed antibody, S298L (antibody, name in EU numbering)
light chain (with the P2A rest): B1 light chain (with the P2A rest)
heavy chain: B1 heavy chain with G266P, S293L
notes: as for B1

Enrichment factor (percentage after sorting/percentage before sorting) [1]: 2.09 | Increased factor (enrichment factor/wild-type enrichment factor) [1]: 2.8
B8: human IgG2 anti-mouse CD40 surface displayed antibody, S267V/S298L (antibody, name in EU numbering)
light chain (with the P2A rest): B1 light chain (with the P2A rest)
heavy chain: B1 heavy chain with S262V, G266P, S293L
notes: as for B2

Enrichment factor (percentage after sorting/percentage before sorting) [1]: 217 | Increased factor (enrichment factor/wild-type enrichment factor) [1]: 290
B10: human IgG2 anti-mouse CD40 surface displayed antibody, S267E (antibody, name in EU numbering)
light chain (with the P2A rest): B1 light chain (with the P2A rest)
heavy chain: B1 heavy chain with S262E, G266P
notes: as for B1

Enrichment factor (percentage after sorting/percentage before sorting) [1]: 9.23 | Increased factor (enrichment factor/wild-type enrichment factor) [1]: 12.3
B13: human IgG2 anti-mouse CD40 surface displayed antibody, P271G/T299W (antibody, name in EU numbering)
light chain (with the P2A rest): B1 light chain (with the P2A rest)
heavy chain: B1 heavy chain with T294W
notes: as for B2

Enrichment factor (percentage after sorting/percentage before sorting) [1]: 16 | Increased factor (enrichment factor/wild-type enrichment factor) [1]: 21.4
B19: human IgG2 anti-mouse CD40 surface displayed antibody, P271G/S298R (antibody, name in EU numbering)
light chain (with the P2A rest): B1 light chain (with the P2A rest)
heavy chain: B1 heavy chain with S293R
notes: as for B2

Enrichment factor (percentage after sorting/percentage before sorting) [1]: 32.8 | Increased factor (enrichment factor/wild-type enrichment factor) [1]: 43.8
B20: human IgG2 anti-mouse CD40 surface displayed antibody, S267E/S298R (antibody, name in EU numbering)
light chain (with the P2A rest): B1 light chain (with the P2A rest)
heavy chain: B1 heavy chain with S262E, G266P, S293R
notes: as for B2

Enrichment factor (percentage after sorting/percentage before sorting) [1]: 1.52 | Increased factor (enrichment factor/wild-type enrichment factor) [1]: 2.03
B22: human IgG2 anti-mouse CD40 surface displayed antibody, S267R (antibody, name in EU numbering)
light chain (with the P2A rest): B1 light chain (with the P2A rest)
heavy chain: B1 heavy chain with S262R, G266P
notes: as for B1

Enrichment factor (percentage after sorting/percentage before sorting) [1]: 12 | Increased factor (enrichment factor/wild-type enrichment factor) [1]: 16
B23: human IgG2 anti-mouse CD40 surface displayed antibody, P271G/T299S (antibody, name in EU numbering)
light chain (with the P2A rest): B1 light chain (with the P2A rest)
heavy chain: B1 heavy chain with T294S
notes: as for B2
